Measurements reported in patent US10064928B2, “Peptides and combination of peptides for use in immunotherapy against CLL and other cancers” (IMMATICS BIOTECHNOLOGIES GMBH, priority 2015, dated 2018).

Molecular target: HLA-A*02:01 (Homo sapiens, UniProt P04439, D140Y/D185E/D98H/E176V/E277Q/G131W/G231S/I119V/I121R/I166T/I218V/L300P/L318F/N151K/N90K/P208A/P217A/Q86G/Q94H/R138H/R169H/T345S)
Experiment: MHC binding assay (UV-ligand exchange, beta2m ELISA)
Conditions: binding of HLA-class I restricted peptides to HLA-A*02:01, β2m ELISA
Method in brief: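 Binding capacity is expressed as the yield of UV-mediated ligand exchange, reflecting how well each peptide stabilizes peptide-receptive MHC. Stabilized complexes are read out by anti-β2m HRP ELISA (450 nm) after streptavidin capture, with refolded MLA-001 monomer standards for quantitation.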

Substance	Peptide Exchange (MHC class I binding score, peptide exchange yield)
228 (FLGGLSPGV; listed as Homo sapiens) [compound 228]	“+++” (≥50 = +++)
229 (FLLNLQNCHL; listed as Homo sapiens) [compound 229]	“++++” (≥75% = ++++)
231 (FLYIRQLAI; listed as Homo sapiens) [compound 231]	“+++” (≥50 = +++)
232 (FMHQIIDQV; listed as Homo sapiens) [compound 232]	“++++” (≥75% = ++++)
234 (GLDDAEYAL; listed as Homo sapiens) [compound 234]	“++” (≥20% = ++)
238 (GLVETELQL; listed as Homo sapiens) [compound 238]	“+++” (≥50 = +++)
239 (ILAGEMLSV; listed as Homo sapiens) [compound 239]	“+++” (≥50 = +++)
241 (ILGDILLKV; listed as Homo sapiens) [compound 241]	“+++” (≥50 = +++)
242 (ILLGIQELL; listed as Homo sapiens) [compound 242]	“+++” (≥50 = +++)
244 (ILQALAVHL; listed as Homo sapiens) [compound 244]	“+++” (≥50 = +++)
245 (KIMDYSLLLGV; listed as Homo sapiens) [compound 245]	“++++” (≥75% = ++++)
247 (KLKDRLPSI; listed as Homo sapiens) [compound 247]	“++” (≥20% = ++)
249 (LLPTGVFQV; listed as Homo sapiens) [compound 249]	“+++” (≥50 = +++)
252 (NLLDPGSSYLL; listed as Homo sapiens) [compound 252]	“+++” (≥50 = +++)
253 (NLWSVDGEVTV; listed as Homo sapiens) [compound 253]	“+++” (≥50 = +++)
256 (QLLPVSNVVSV; listed as Homo sapiens) [compound 256]	“+++” (≥50 = +++)
260 (SLDDVEGMSV; listed as Homo sapiens) [compound 260]	“+++” (≥50 = +++)
262 (SLWNAGTSV; listed as Homo sapiens) [compound 262]	“+++” (≥50 = +++)
263 (SQWEDIHVV; listed as Homo sapiens) [compound 263]	“+++” (≥50 = +++)

Substance	Peptide Exchange (MHC class I binding score, peptide exchange yield)
265 (TLLADDLEIKL; listed as Homo sapiens) [compound 265]	“+++” (≥50 = +++)
266 (TLLDQLDTQL; listed as Homo sapiens) [compound 266]	“++” (≥20% = ++)
267 (TLLDWQDSL; listed as Homo sapiens) [compound 267]	“+++” (≥50 = +++)
268 (TLLQVFHLL; listed as Homo sapiens) [compound 268]	“+++” (≥50 = +++)
270 (TVLPVPPLSV; listed as Homo sapiens) [compound 270]	“+++” (≥50 = +++)
271 (VIRNIVEAA; listed as Homo sapiens) [compound 271]	“++” (≥20% = ++)
272 (VLDELPPLI; listed as Homo sapiens) [compound 272]	“+++” (≥50 = +++)
273 (VLGEYSYLL; listed as Homo sapiens) [compound 273]	“+++” (≥50 = +++)
274 (VLLEYHIAYL; listed as Homo sapiens) [compound 274]	“+++” (≥50 = +++)
275 (VLLFIEHSV; listed as Homo sapiens) [compound 275]	“+++” (≥50 = +++)
276 (VLNDGAPNV; listed as Homo sapiens) [compound 276]	“+++” (≥50 = +++)
277 (VMILKLPFL; listed as Homo sapiens) [compound 277]	“++” (≥20% = ++)
279 (YMAPEVVEA; listed as Homo sapiens) [compound 279]	“+++” (≥50 = +++)
280 (YTLDSLYWSV; listed as Homo sapiens) [compound 280]	“+++” (≥50 = +++)
283 (ILQPMDIHV; listed as Homo sapiens) [compound 283]	“+++” (≥50 = +++)
285 (GVATAGCVNEV; listed as Homo sapiens) [compound 285]	“++++” (≥75% = ++++)
291 (ILLNEDDLVTI; listed as Homo sapiens) [compound 291]	“+++” (≥50 = +++)
292 (AAALIIHHV; listed as Homo sapiens) [compound 292]	“+++” (≥50 = +++)

The next lines start with the values.

Peptide Exchange (MHC class I binding score, peptide exchange yield)	Substance
“+++” (≥50 = +++)	227 (FLAEASVMTQL; listed as Homo sapiens) [compound 227]
“+++” (≥50 = +++)	230 (FLQDSKVIFV; listed as Homo sapiens) [compound 230]
“++” (≥20% = ++)	233 (GIIDINVRL; listed as Homo sapiens) [compound 233]
“+++” (≥50 = +++)	235 (GLDDLLLFL; listed as Homo sapiens) [compound 235]
“+++” (≥50 = +++)	236 (GLLESGRHYL; listed as Homo sapiens) [compound 236]
“++++” (≥75% = ++++)	237 (GLQENLDVVV; listed as Homo sapiens) [compound 237]
“+++” (≥50 = +++)	243 (ILPTLEKELFL; listed as Homo sapiens) [compound 243]
“++” (≥20% = ++)	246 (KLDETGVAL; listed as Homo sapiens) [compound 246]
“++” (≥20% = ++)	248 (KTVEPPISQV; listed as Homo sapiens) [compound 248]
“+++” (≥50 = +++)	250 (LLVQEPDGLMV; listed as Homo sapiens) [compound 250]
“+++” (≥50 = +++)	251 (LLYDNVPGA; listed as Homo sapiens) [compound 251]
“+++” (≥50 = +++)	254 (QLIPKLIFL; listed as Homo sapiens) [compound 254]
“+++” (≥50 = +++)	255 (YLFEEAISM; listed as Homo sapiens) [compound 255]
“+++” (≥50 = +++)	258 (RLDYITAEI; listed as Homo sapiens) [compound 258]
“+++” (≥50 = +++)	259 (RLLDEQFAVL; listed as Homo sapiens) [compound 259]
“+++” (≥50 = +++)	261 (SLVEAQGWLV; listed as Homo sapiens) [compound 261]
“+++” (≥50 = +++)	264 (TILDYINVV; listed as Homo sapiens) [compound 264]
“++” (≥20% = ++)	269 (TLTDEQFLV; listed as Homo sapiens) [compound 269]
“+++” (≥50 = +++)	278 (YLDDLLPKL; listed as Homo sapiens) [compound 278]
“++” (≥20% = ++)	284 (LLSAAEPVPA; listed as Homo sapiens) [compound 284]
“+++” (≥50 = +++)	286 (FLLEDLSQKL; listed as Homo sapiens) [compound 286]
“++++” (≥75% = ++++)	287 (FLWEEKFNSL; listed as Homo sapiens) [compound 287]
“+++” (≥50 = +++)	288 (GLAESTGLLAV; listed as Homo sapiens) [compound 288]
“+++” (≥50 = +++)	289 (ILEEQPMDMLL; listed as Homo sapiens) [compound 289]
